Data taken from patent publication US20160030629A1, “PEPTIDE-ALBUMIN HYDROGEL PROPERTIES AND ITS APPLICATIONS” (KANSAS STATE UNIVERSITY RESEARCH FOUNDATION, priority 2012, published 2016).

What was measured:
Type in all cases: physicochemical
[1] = pH of synthesized peptide in water solution
From the text: Peptides were synthesized on a CEM Liberty microwave peptide synthesizer (CEM Corporation, Matthews, N.C.) based on the automated base-labile 9-fluorenylmethoxycarbonyl (Fmoc) strategy with Fmoc-protected amino acids (EMD Biosciences, San Diego, Calif.). Peptides were cleaved with 95% trifluoroacetic acid (Sigma-Aldrich, Milwaukee, Wis.), 2.5% triisopropylsilane (Sigma), and 2.5% deionized water. The crude peptides were washed three times with anhydrous ether (Fisher Biotech, Fair Lawn, N.J.). After that, peptides were dissolved in acetonitrile and distilled (DI) water (50/50 v/v). The peptide solution was frozen in a −80° C. refrigerator overnight and then was freeze-dried for 48 hours by using the Labconco freeze dry system (Labconco, Kansas City, Mo.). The pH value of the peptide in water solution was 3.6. Molecular weight of the synthesized peptide was confirmed by matrix-assisted laser desorption/ionization time-of-flight mass spectroscopy on an Ultraflex II instrument (Bruker Daltronics, Billerica, Mass.). The peptide purity was confirmed by a Beckman System Gold high performance liquid chromatography (HPLC, Beckman Coulter, Inc., Fullerton, Calif.) on a phenomenex synergi 4μ Hydro-RP column (Phenomenex, Inc., Torance, Calif.) with the following gradient: 10-90% B in 20 min (A: 99.9% H2O, 0.1% TFA; B: 90% acetonitrile, 9.9% H2O, 0.1% TFA).

[2] = Rheology (storage modulus, hydrogel forming rate) of h9e/BSA mixtures; conditions: 3 mM h9e solution without BSA, 30 min test
Method: BSA and HSA were dissolved in water with 5 wt % concentration. The peptide solution and albumin solution were then mixed at different ratios for final mixtures of 1, 2, 3 mM h9e peptide with albumin from 0.1 to 5 wt %.
The storage (G′) and loss (G″) moduli of h9e hydrogels with different peptide/albumin ratios were measured on a rheometer system C-VOR 150 (Malvern instruments, Malvern, Worcestershire WR141XZ, United Kingdom) with a 20 mm diameter parallel plate test system. All rheological tests were carried out at 37° C. […]

[3] = h9e hydrogel formation in cell culture media, serum/albumin dependence
From the text: This phenomenon was further exploited in other cell culture medium like Dulbecco's modified Eagle's medium (DMEM), Roswell Park Memorial Institute medium (RPMI), and Leibovitz medium (L-15). […] After screening the abundant serum compounds, we concentrated on one of the most abundant proteins in serum, albumin, which contains charged groups and several surface binding domains.

[4] = Comparison of material properties of different 3D cell culture hydrogels
From the text: In addition, for in vitro 3D cell culture, cell encapsulation and isolation are two critical steps to introduce 3D spatial support for cell growth and to recover embedded cells from the scaffold matrix for downstream studies respectively. For a convenient, effective, and safe encapsulation, cells should be added simultaneously with the initialization of hydrogelation. Therefore, mild and cyto-compatible hydrogel-forming conditions are preferred, to ensure that cells survive comfortably during gel formation. However, the sol-gel transformation of currently used peptide/protein hydrogels (i.e., puramatrix gel, hydromatix peptide hydrogel, and matrigel) is triggered by adjusting pH or temperature (Table 1).

[5] = Stability of h9e-2i hydrogel and of h9e peptide solution
Method: The stability of h9e-2i medium hydrogel was tested. A plastic tray was placed on the bottom of the well plate. Next, 1 wt % h9e solution was mixed with 2i medium at 1:1 (v:v) ratio in a centrifuge tube and then transferred into the well plate. There was 500 μl peptide hydrogel for each well. The well plate was then placed in an incubator for 1 hour. After hydrogel was stable, another 500 μl of 2i medium was slowly added on the top of hydrogel. The top medium was replaced every other day. For mechanical testing, the top 2i medium was removed and hydrogel was transferred to a dynamic rheometer using the tray. The stability of the peptide solution was also tested using 1 wt % peptide solution stored in 4° C. refrigerator for up to 24 days. Part of the peptide solution was taken out and mixed with 2i medium with 1:1 (v:v) ratio on days 1, 6, 18 and 24.

FLIVIGSIIGPGGDGPGGD (Derivative of spider flagelliform silk protein and a trans-membrane segment of subunit IV in the dihydropyridine sensitive human muscle L-type calcium channel) [h9e, 19 unit amphiphilic self-assembling peptide]
pH value of the peptide in water solution [1]: 3.6
rheological behaviour [2]: performed as Newtonian liquid
solution to hydrogel transition ([3]; MEM without serum): did not stimulate this solution to hydrogel transitions effectively
time to transform into a self-supporting hydrogel matrix ([3]; h9e peptide solution added into MEM with 10% serum): ≤ 1 min
hydrogel formation ([3]; serum-free N2B27 supplemented 2i medium with 1 wt % albumin): hydrogel formation
Porosity [4]: 50-200 nm
Solution pH [4]: Neutral
hydrogel formation with 2i medium after storage of solution ([5]; 1 wt % h9e solution stored at 4° C. for 24 days): could still from a hydrogel
stability of h9e solution ([5]; recent study, no details): exceed 2 months
